How the values were obtained:
[1] = target: T1, Purified human wt-CFTR (His10-SUMO*-CFTRFLAG-EGFP), PKA phosphorylated (human, UniProt P13569 1-1480, PKA phosphorylated (sites not given)); test: ELISA, purified wt-CFTR immobilised on nickel-coated plate, nanobody titrated
T1 construct: Expressed in HEK293 cell line D165, purified on NiNTA in DMNG detergent; used for the full-length CFTR ELISA and the ATPase assays; also called FL-CFTR; full-length CFTR; not shown: N-terminal His10-SUMO* tag; FLAG tag and enhanced green fluorescent protein (EGFP)
Source text: Quantification of at least 3 independent experiments (±SEM). (g) Immunoblot of CFTR from solubilized BHK-21 cells pulled-down with His-tagged nanobodies, including a non-CFTR nanobody as a control. Eluted nanobodies-CFTR complexes were separated by SDS-PAGE and presence of CFTR was detected with mAb 596 antibody after immunoblotting. Arrows indicate the mature (band C) and immature (band B) forms of CFTR. Representative of at least 3 independent experiments. (FIG. 4H) Flow cytometry analysis of nanobodies T2a, T8 and G3a on BHK-21 cells expressing 2PT-F508del showing increased labelling for T2a and G3a, but not T8. (FIG. 4I) Quantification of data illustrated in […]. Average of 3 independent experiments (±SEM).
Strep-Tactin XT coated microplate (iba Life Science) was coated overnight at 4° C. with Twin-Strep-tagged nanobodies (5 μg/ml). […] CFTR binding was detected with monoclonal antibodies L12B4, MM13, 154, 660, 570, 596 specific to CFTR obtained from the CFTR Antibody Distribution Program (http://cftrantibodies.web.unc.edu/available-antibodies)46 and then anti-mouse-HRP antibody (Millipore, catalogue number: AP308P, 0.5 μg/ml) for 1 h 30 min at 4° C. […] Nanobody binding was detected with Myc-tag specific antibody (Sigma, catalogue number: C3956, 0.5 μg/ml) and then anti-rabbit-HRP antibody (Cell Signaling, catalogue number: 7074S, 1:1000 dilution) for 1 h 30 min at 4° C. […]

[2] = target: T2, 2PT-F508del-CFTR expressed in BHK-21 cells (human, UniProt P13569 1-1480, I539T; S492P; A534P; F508del); test: flow cytometry on permeabilised BHK-21 cells expressing 2PT-F508del-CFTR, anti-tag antibody and Alexa Fluor 488 secondary
T2 construct: Full-length F508del CFTR stabilized by the three point mutations; permeabilized cells in flow cytometry
Source text: Graph depicts one representative of at least three independent experiments. (FIG. 4F) Average median fluorescence (fold over negative control) for each of the three representative nanobodies as illustrated in (FIG. 4D) and (FIG. 4E). Quantification of at least 3 independent experiments (±SEM). (g) Immunoblot of CFTR from solubilized BHK-21 cells pulled-down with His-tagged nanobodies, including a non-CFTR nanobody as a control. Eluted nanobodies-CFTR complexes were separated by SDS-PAGE and presence of CFTR was detected with mAb 596 antibody after immunoblotting. Arrows indicate the mature (band C) and immature (band B) forms of CFTR. Representative of at least 3 independent experiments. (FIG. 4H) Flow cytometry analysis of nanobodies T2a, T8 and G3a on BHK-21 cells expressing 2PT-F508del showing increased labelling for T2a and G3a, but not T8. (FIG. 4I) Quantification of data illustrated in […]. Average of 3 independent experiments (±SEM).
Parental BHK-21 cells (ATCC; CCL-10) and cells stably overexpressing human wt-CFTR^{[43,44,47]} or 2PT-F508del-CFTR, as described above, were permeabilized with 0.01% n-Dodecyl-β-D-Maltopyranoside β-DDM—Inalco) at least for 2 h on ice. In the meantime, cells were incubated with 50 μg/ml nanobodies and DRAQ7 (0.3 μM—Biostatus) to monitor the permeabilization state. Nanobody binding was detected by using His-tag specific antibody (Invitrogen, catalogue number MA1-135, 1 μg/ml) or Myc-tag specific antibody (Invitrogen, catalogue number 13-2500, 2 μg/ml) and then anti-mouse-Alexa Fluor 488 (Invitrogen, catalogue number A11001, 1.3 μg/ml) at least for 30 min on ice. Cells were washed one time between each step by centrifugation (200×g for 5 min at 4° C.). All incubations (100 μl) and washes (1.5 ml) were performed in PBS with 6% fetal bovine serum (FBS) and 0.01%13-DDM on ice. Cells fluorescence was measured with Gallios Flow Cytometer (Beckman Coulter). Data were analyzed with Kaluza software.

T1 sequence (P13569 whole entry): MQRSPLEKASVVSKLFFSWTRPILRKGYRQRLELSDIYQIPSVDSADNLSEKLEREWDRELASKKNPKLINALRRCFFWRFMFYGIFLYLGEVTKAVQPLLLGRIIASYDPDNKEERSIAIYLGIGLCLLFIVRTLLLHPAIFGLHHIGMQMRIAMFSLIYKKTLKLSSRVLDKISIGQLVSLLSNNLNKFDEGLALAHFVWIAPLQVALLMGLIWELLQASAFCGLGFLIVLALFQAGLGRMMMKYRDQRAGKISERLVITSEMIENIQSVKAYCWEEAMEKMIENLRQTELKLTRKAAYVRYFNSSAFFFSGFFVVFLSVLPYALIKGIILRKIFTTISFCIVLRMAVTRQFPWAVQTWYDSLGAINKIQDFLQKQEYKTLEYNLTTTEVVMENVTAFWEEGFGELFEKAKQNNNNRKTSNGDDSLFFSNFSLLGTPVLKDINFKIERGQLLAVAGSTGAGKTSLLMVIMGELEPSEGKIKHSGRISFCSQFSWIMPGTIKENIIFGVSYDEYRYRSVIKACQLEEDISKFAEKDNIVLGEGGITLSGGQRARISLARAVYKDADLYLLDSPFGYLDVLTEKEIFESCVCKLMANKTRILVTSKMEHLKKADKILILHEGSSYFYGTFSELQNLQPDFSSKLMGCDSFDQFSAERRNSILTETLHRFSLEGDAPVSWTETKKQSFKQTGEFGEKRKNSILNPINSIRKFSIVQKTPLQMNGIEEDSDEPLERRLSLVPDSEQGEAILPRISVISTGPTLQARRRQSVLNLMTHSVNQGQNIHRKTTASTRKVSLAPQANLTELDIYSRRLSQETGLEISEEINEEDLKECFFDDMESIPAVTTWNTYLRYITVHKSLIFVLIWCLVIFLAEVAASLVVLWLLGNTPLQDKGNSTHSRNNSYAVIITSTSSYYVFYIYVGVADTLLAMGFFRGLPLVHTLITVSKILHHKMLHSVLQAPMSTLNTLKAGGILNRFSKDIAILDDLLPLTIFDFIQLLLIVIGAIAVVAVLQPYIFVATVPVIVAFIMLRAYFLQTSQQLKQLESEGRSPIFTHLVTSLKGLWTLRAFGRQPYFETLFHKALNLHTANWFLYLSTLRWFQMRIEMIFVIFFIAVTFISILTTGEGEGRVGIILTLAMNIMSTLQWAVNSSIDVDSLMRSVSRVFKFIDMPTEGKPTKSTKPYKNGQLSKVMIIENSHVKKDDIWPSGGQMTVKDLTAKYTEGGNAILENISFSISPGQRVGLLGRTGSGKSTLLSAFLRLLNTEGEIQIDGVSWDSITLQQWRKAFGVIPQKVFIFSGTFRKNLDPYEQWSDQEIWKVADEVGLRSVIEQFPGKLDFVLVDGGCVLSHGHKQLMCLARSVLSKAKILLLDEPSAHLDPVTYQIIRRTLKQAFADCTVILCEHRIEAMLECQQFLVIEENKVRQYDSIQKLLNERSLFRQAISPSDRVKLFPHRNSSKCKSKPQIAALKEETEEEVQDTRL
T2 sequence (P13569 other isoform, or with tags, fused parts or gaps I539T/S492P/A534P/F508del): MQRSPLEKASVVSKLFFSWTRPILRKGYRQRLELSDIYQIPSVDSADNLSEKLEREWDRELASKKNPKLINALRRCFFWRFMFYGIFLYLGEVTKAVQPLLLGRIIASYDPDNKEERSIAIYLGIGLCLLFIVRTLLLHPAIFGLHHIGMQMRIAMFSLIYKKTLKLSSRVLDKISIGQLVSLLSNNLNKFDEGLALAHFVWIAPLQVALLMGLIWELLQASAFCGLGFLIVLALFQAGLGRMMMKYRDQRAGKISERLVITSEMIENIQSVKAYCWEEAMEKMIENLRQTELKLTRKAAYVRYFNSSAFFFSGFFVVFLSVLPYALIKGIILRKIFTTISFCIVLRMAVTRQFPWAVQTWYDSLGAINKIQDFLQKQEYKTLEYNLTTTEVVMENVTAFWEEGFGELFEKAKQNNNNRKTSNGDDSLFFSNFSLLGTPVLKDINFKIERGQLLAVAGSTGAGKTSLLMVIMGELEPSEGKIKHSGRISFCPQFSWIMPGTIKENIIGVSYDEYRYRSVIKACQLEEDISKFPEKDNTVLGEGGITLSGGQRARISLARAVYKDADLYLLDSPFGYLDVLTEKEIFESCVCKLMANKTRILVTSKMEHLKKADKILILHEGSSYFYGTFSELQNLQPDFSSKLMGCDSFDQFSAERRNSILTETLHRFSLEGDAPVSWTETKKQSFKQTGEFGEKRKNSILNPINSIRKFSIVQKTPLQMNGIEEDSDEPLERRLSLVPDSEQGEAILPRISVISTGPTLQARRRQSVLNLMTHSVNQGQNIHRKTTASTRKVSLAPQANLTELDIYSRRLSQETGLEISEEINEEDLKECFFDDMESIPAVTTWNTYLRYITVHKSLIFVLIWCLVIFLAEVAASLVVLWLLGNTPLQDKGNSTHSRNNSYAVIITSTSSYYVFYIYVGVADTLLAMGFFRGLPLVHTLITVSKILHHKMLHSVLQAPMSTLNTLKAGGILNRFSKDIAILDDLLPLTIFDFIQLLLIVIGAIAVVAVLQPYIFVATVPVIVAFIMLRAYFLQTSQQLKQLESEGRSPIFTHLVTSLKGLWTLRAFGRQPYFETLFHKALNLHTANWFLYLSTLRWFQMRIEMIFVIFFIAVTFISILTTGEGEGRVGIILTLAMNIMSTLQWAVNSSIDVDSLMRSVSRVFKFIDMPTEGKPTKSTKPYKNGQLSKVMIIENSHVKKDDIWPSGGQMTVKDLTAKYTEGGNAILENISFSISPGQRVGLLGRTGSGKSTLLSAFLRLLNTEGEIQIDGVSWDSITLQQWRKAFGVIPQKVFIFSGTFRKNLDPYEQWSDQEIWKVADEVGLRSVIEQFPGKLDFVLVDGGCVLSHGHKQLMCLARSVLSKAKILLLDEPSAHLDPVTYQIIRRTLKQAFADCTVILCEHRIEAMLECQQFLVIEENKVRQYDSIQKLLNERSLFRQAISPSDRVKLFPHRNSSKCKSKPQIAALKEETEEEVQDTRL

B1: Nanobody T8 (VHH, not shown: small tags and cut ends)
VHH: QVQLQESGGGLVQPGGSLRLSCAASGSTSSINAMGWYRQAPGKQREPVAISSSGGDTRYAEPVKGRFTISRDNAQNKVYLQMNSLKPEDTAVYYCWLNWGRTSVNSWGQGTQVTVSS
notes: Llama nanobody; also called Nb T8; T8 Nb
- EC50 (read off the curve) [1]: ~300 nM
- binding result [2]: no binding

B2: Nanobody T2a (VHH, not shown: small tags and cut ends)
VHH: QVQLQESGGGLVQAGGSLRLSCAASGSIFRIDAMGWYRQAPGKQRELVAHSTSGGSTDYADSVKGRFTISRDNAKNTVYLQMNSLKPEDTAVYYCNADVRTRWYASNNYWGQGTQVTVSS
notes: Llama nanobody; also called Nb T2a; T2a Nb
- EC50 (read off the curve) [1]: ~200 nM
- binding result [2]: binds

Reference: patent US20220289837A1 (VIB VZW, published 2022)
